Values joined by “and” are separate entries in the source; they are usually repeats but may differ in a detail not shown here. Equal values may be shown once. “Also recorded” adds a separate entry of the source.
Assays:
Assay type in all cases: cell-based
[1] = system: HEK293T cells; assay: Simultaneous whole-cell patch clamp electrophysiology and fluorescence in HEK cells (brightness, voltage sensitivity, speed); details: for Brightness (λexc = 640 nm) 0.7 W/cm^2 / Brightness (λexc = 640 nm) 800 W/cm^2 / Sensitivity (ΔF/F per 100 mV): HEK293 cells; for voltage sensitivity (ΔF/F per 100 mV) / brightness relative to wild-type Arch: HEK cells; for brightness compared with corresponding double mutants: eGFP fusions in HEK cells, exc. 640 nm
Procedure: Simultaneous electrophysiology and fluorescence in HEK cells: HEK293T cells (ATCC CRL-11268) were cultured and transfected following standard protocols.^10 Briefly, HEK-293 cells were grown at 37° C., 5% CO2, in DMEM supplemented with 10% FBS and penicillin-streptomycin. Plasmids were transfected using Transit 293T (Mirus) following the manufacturer's instructions, and assayed 48 hours later. The day before recording, cells were re-plated onto glass-bottom dishes (MatTek) at a density of ˜10,000 cells/cm^2.
Cells were supplemented with retinal by diluting stock retinal solutions (40 mM, DMSO) in growth medium to a final concentration of 5 μM, and then returning the cells to the incubator for 0.5-1 hour. All imaging and electrophysiology were performed in Tyrode buffer (containing, in mM: 125 NaCl, 2.5 KCl, 3 CaCl2, 1 MgCl2, 10 HEPES, 30 glucose pH 7.3, and adjusted to 305-310 mOsm with sucrose). A gap junction blocker, 2-aminoethoxydiphenyl borate (50 μM, Sigma), was added to eliminate electrical coupling between cells.
Filamented glass micropipettes (WPI) were pulled to a tip resistance of 5-10 MΩ, and filled with internal solution containing 125 mM potassium gluconate, 8 mM NaCl, 0.6 mM MgCl2, 0.1 mM CaCl2, 1 mM EGTA, 10 mM HEPES, 4 mM Mg-ATP, 0.4 mM Na-GTP (pH 7.3); adjusted to 295 mOsm with sucrose. Pipettes were positioned with a Sutter MP285 manipulator. Whole-cell, voltage and current clamp recordings were acquired using an […] 700B amplifier (Molecular Devices), filtered at 2 kHz with the internal Bessel filter and digitized with a National Instruments PCIE-6323 acquisition board at 5-10 kHz. Data was only acquired from HEK cells having reversal potentials between −10 and −40 mV, access resistance<25 MΩ and membrane resistance>0.5 GΩ.
Simultaneous whole-cell patch clamp recordings and fluorescence recordings were acquired on a home-built, inverted epifluorescence microscope, described previously^10 and described below in “Apparatus”. For step response measurements, voltage clamp electronics were compensated 90-95%. We examined variants of QuasAr1 with mutations at position 95 (Asn, Cys, Gin, His and Tyr) and position 106 (Arg, Asp, Asn, Cys, Glu, His, Lys and Tyr). These experiments confirmed that histidine at position 106 provided undetectable photocurrent, and the best combination of improved voltage sensitivity, and fast kinetics.
We compared the fluorescence, voltage sensitivity, and speed of the QuasArs to wild-type Arch in HEK cells, using epifluorescence microscopy and whole-cell patch clamp electrophysiology. Under low intensity illumination (640 nm, 500 mW/cm^2), QuasAr1 was 15-fold brighter than wild-type Arch, and QuasAr2 was 3.3-fold brighter (FIG. 1B; Methods).

[2] = system: cultured rat hippocampal neurons; assay: Photocurrent in cultured rat hippocampal neurons; details: for photocurrent (in words): red (640 nm, 300 W/cm^2, tested up to 900 W/cm^2) or blue (488 nm, 500 mW/cm^2) illumination; for photocurrent: red illumination (640 nm, 300 W/cm^2)
Procedure: FIGS. 4A-4B show the photophysics of QuasArs in mammalian cells. […] Steady state photocurrents were calculated by averaging the current over the last 0.25 seconds of light exposure and subtracting the holding current (cells held at −65 mV) in the dark. These currents hyperpolarized cells by 25±4 mV and 19±3 mV, respectively. […] The double mutants had mutations at the locations of the proton acceptor (Asp95) and proton donor (Asp106) to the Schiff base. QuasAr1 includes mutations D95H, D106H, and QuasAr2 includes mutations D95Q, D106H. The three additional backbone mutations in the QuasArs (P60S, T80S, F161V) increased brightness relative to the double mutants, Fluorescence of each Arch mutant was measured with excitation at 640 nm and emission from 660-760 nm. To control for variation in expression level, fluorescence was normalized by eGFP fluorescence (λexc=488 nm, λem=510−550 nm). Error bars represent s.e.m. for measurements on n=5-10 cells.
Measurements were performed on primary cultures at 13-15 DIV. Experiments were conducted in Tyrode's solution containing 125 mM NaCl, 2.5 mM KCl, 3 mM CaCl2, 1 mM MgCl2, 10 mM HEPES, 30 mM glucose (pH 7.3) and adjusted to 305-310 mOsm with sucrose. Prior to imaging, neurons were incubated with 5 μM all-trans retinal for 30 minutes and then washed with Tyrode's solution.
Synaptic blockers were added to the imaging medium for measurements of single-cell electrophysiology (Arch photocurrents, and single-cell excitability). The blockers comprised NBQX (10 μM, Tocris), D(−)-2-amino-5-phosphonovaleric acid (APS; […]), and gabazine (SR-95531, 20 μM, Tocris). For measurements of channel rhodopsin photocurrents in neurons, TTX (1 μM, Tocris) was included along with the synaptic blockers to prevent recruitment of voltage gated sodium channels. […] Recordings were terminated if membrane resistance changed by >10%. Experiments were performed at 23° C. under ambient atmosphere unless otherwise noted.

[3] = system: HEK293 cells; assay: Optical crosstalk of blue illumination into QuasAr fluorescence; details: continuous 640 nm 300 W/cm^2
Excerpt: FIGS. 5A-5B show the quantification of optical crosstalk of blue illumination into QuasAr fluorescence. Illumination sufficient to induce high-frequency trains of action potentials (488 nm, 140 mW/cm2) perturbed fluorescence of QuasArs by <1%. […] HEK293 cells expressing QuasAr1 or QuasAr2 were exposed to continuous excitation at 640 nm (300 W/cm^2) and pulses of illumination at 488 nm (50 ms, 5 Hz). The intensity of the blue pulses increased from 0.06 to 1.8 W/cm^2. […] Illumination with blue light at typical intensity used to excite a blue-light activator (CheRiff) (0.2 W/cm^2) increased QuasAr1 fluorescence by 1.1% and QuasAr2 fluorescence by 0.6%. Illumination at with blue light at 1 W/cm^2 increased QuasAr1 fluorescence by 3.4% and QuasAr2 fluorescence by 2.4%. Error bars represent s.e.m. for n=5 cells for each QuasAr.

[4] = low intensity illumination (640 nm, 500 mW/cm^2)

Molecule	τdown (+30 mV to −70 mV) % τ1 ([1]; 23° C.) [%]	τdown (+30 mV to −70 mV) τ1 ([1]; 23° C.) [ms]	τdown (+30 mV to −70 mV) τ2 ([1]; 23° C.) [ms]	τup (−70 mV to +30 mV) % τ1 ([1]; 23° C.) [%]	τup (−70 mV to +30 mV) τ1 ([1]; 23° C.) [ms]	τup (−70 mV to +30 mV) τ2 ([1]; 23° C.) [ms]	Brightness (λexc = 640 nm) 0.7 W/cm^2 ([1]; 23° C.)	Brightness (λexc = 640 nm) 800 W/cm^2 ([1]; 23° C.)	Sensitivity (ΔF/F per 100 mV) ([1]; 23° C.) [%]	step response time constant (single or first component) ([1]; 34° C., step −70 mV to +30 mV) [ms]	voltage sensitivity (ΔF/F per 100 mV) [1] [%]	brightness compared with corresponding double mutants [1]	brightness relative to wild-type Arch ([1]; high intensity (>100 W/cm^2))	brightness relative to wild-type Arch [1, 4] [fold]	photocurrent (in words) [2]	photocurrent [2] [pA]	increase of fluorescence by blue light ([3]; 488 nm 0.2 W/cm^2) [%]	increase of fluorescence by blue light ([3]; 488 nm 1 W/cm^2) [%]	further results
QuasAr1: Archaerhodopsin 3 variant with mutations P60S, T80S, D95H, D106H, F161V; genetically encoded voltage indicator (protein) MDPIALQAGYDLLGDGRPETLWLGIGTLLMLIGTFYFLVRGWGVTDKDAREYYAVTILVSGIASAAYLSMFFGIGLTEVSVGGEMLDIYYARYAHWLFTTPLLLLHLALLAKVDRVTIGTLVGVDALMIVTGLIGALSHTAIARYSWWLFSTICMIVVLYVLATSLRSAAKERGPEVASTFNTLTALVLVLWTAYPILWIIGTEGAGVVGLGIETLLFMVLDVTAKVGFGFILLRSRAILGDTEAPEPSAGADVSAAD	88	0.07	1.9	94	0.05	3.2	15.2	10.3	33	~0.05	32±3	significantly brighter than the corresponding double mutants	2.5 fold	15	Neither QuasAr1 nor QuasAr2 generated detectable photocurrent; also recorded: Neither QuasAr1 (n=9 cells) nor QuasAr2 (n=7 cells) generated detectable photocurrents	0	1.1	3.4	response faster than fastest previously reported GEVIs [1]: more than 10 fold; response time [1]: 50 μs; voltage sensitivity compared with QuasAr2 [1]: three-fold less than the sensitivity of QuasAr2; step response time constant (single or first component) ([1]; room temperature (23° C.), step −70 mV to +30 mV): < 0.05 ms and 0.053 ± 0.002 ms
QuasAr2: Archaerhodopsin 3 variant with mutations P60S, T80S, D95Q, D106H, F161V; genetically encoded voltage indicator (protein) MDPIALQAGYDLLGDGRPETLWLGIGTLLMLIGTFYFLVRGWGVTDKDAREYYAVTILVSGIASAAYLSMFFGIGLTEVSVGGEMLDIYYARYAQWLFTTPLLLLHLALLAKVDRVTIGTLVGVDALMIVTGLIGALSHTAIARYSWWLFSTICMIVVLYVLATSLRSAAKERGPEVASTFNTLTALVLVLWTAYPILWIIGTEGAGVVGLGIETLLFMVLDVTAKVGFGFILLRSRAILGDTEAPEPSAGADVSAAD	80	1.0	15.9	68	1.2	11.8	3.4	3.4	90	0.3 ± 0.05	90±2	significantly brighter than the corresponding double mutants	comparable	3.3	Neither QuasAr1 nor QuasAr2 generated detectable photocurrent; also recorded: Neither QuasAr1 (n=9 cells) nor QuasAr2 (n=7 cells) generated detectable photocurrents	0	0.6	2.4	weight of first component of bi-exponential step response ([1]; 23° C.): 68%; weight of second component of bi-exponential step response ([1]; 23° C.): 32%; step response time constant (second component) ([1]; 23° C., step −70 mV to +30 mV): 11.8 ± 1.5 ms; step response time constant (second component) ([1]; 34° C.): 3.2 ± 0.4 ms; weight of first component of bi-exponential step response ([1]; 34° C.): 62%; weight of second component of bi-exponential step response ([1]; 34° C.): 38%; τdown (+30 mV to −70 mV) % τ1 ([1]; 34° C.): 73%; τdown (+30 mV to −70 mV) τ1 ([1]; 34° C.): 0.3 ms; τdown (+30 mV to −70 mV) τ2 ([1]; 34° C.): 4.0 ms; τup (−70 mV to +30 mV) % τ1 ([1]; 34° C.): 62%; τup (−70 mV to +30 mV) τ1 ([1]; 34° C.): 0.3 ms; τup (−70 mV to +30 mV) τ2 ([1]; 34° C.): 3.2 ms

— patent publication US9518103B2, “Optogenetic probes for measuring membrane potential” (President and Fellows of Harvard College, priority 2014, dated 2016)
